Laboratory results taken from PMC7672080.

Assays:
[1] = target: mCherry-tagged neuroligin-1 (UniProt Q99K10)
[2] = target: mCherry-tagged neuroligin-1 (UniProt Q99K10); remark: listed apart in the source

Sequence of UniProt Q99K10 (Q99K10 46-843): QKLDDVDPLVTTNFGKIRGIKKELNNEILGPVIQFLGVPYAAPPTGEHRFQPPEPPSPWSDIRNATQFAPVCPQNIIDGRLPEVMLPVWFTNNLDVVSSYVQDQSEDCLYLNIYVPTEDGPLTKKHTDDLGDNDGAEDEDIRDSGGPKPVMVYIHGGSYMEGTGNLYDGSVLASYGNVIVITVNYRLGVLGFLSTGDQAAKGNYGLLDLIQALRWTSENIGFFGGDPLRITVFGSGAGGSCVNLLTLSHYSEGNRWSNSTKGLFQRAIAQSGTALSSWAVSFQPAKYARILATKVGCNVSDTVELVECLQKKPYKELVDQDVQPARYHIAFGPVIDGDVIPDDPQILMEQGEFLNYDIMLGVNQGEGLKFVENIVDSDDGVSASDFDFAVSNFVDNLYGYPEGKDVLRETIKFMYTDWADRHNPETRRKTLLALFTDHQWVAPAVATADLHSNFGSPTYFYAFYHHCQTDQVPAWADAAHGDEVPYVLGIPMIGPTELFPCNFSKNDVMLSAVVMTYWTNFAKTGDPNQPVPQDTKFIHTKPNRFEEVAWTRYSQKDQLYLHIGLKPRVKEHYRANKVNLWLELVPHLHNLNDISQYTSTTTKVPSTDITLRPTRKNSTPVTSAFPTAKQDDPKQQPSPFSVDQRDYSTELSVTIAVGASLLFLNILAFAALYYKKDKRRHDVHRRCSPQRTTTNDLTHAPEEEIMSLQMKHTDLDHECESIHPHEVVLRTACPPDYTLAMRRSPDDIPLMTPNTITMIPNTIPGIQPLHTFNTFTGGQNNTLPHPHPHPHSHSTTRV

What does the source list for “GFP-tagged neurexin-1β (from UniProt Q63373 47-468) (receptor)”?
enrichment of GFP-Nrx1β at cell–cell contacts between co-cultured COS-7 cells expressing GFP-Nrx1β and cells expressing Nlg1-mCherry (fluorescence microscopy) [1]: 3.9; diffusion coefficient of single GFP-Nrx1β molecules inside the contact with a cell expressing Nlg1-mCherry (uPAINT single particle tracking at 50 Hz; Dout = 0.3 µm^2/s outside the contact) [2]: 0.04 µm^2/s
